The values that follow come from patent US20220306762A1 (CRYSTAL BIOSCIENCE, published 2022).

The target in assay [1] is T1, His-tagged human CD38 (ACRO Biosystems cat #CD8-H5224) (human, UniProt P28907 43-300).
T1 construct: bought recombinant protein with His tag
Description: ELISA, coated His-CD38.

The target in assay [2] is T2, His-tagged cynomolgus monkey CD38 (ACRO Biosystems cat #CD8-05223) (cynomolgus monkey, UniProt Q5VAN0 43-301).
T2 construct: bought recombinant protein with His tag
As to the kind of experiment: ELISA, coated His-CD38. For orientation: In an ELISA, binding on a coated surface is turned into a signal by an enzyme label.

The target in assay [3] is T3, His-tagged mouse CD38 (ACRO Biosystems #CD8-M5223) (mouse, UniProt P56528 45-304).
T3 construct: bought recombinant protein with His tag; also called Murine
T3 sequence (looked up): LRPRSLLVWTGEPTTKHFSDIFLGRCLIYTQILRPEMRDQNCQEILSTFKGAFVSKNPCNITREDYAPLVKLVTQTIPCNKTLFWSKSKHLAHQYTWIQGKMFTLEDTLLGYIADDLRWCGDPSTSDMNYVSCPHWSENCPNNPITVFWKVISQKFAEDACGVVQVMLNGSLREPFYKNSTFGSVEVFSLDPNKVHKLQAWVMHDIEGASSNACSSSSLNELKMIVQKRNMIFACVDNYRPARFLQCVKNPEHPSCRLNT
Description: ELISA, coated His-CD38.

Assay [4] has as its target T1, His-tagged human CD38 (ACRO Biosystems …). Description: SPR, captured scFv-Fc, His-CD38 analyte.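 Also: SPR on a Carterra LSA, scFv-Fc captured by anti-human Fc on HC30M chip, His-tagged CD38 (human, mouse, cynomolgus) flowed as analyte in eight 1:2 steps from 400 nM.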
The target of assay [5] is T2, His-tagged cynomolgus monkey CD38 (ACRO …). As to the kind of experiment: SPR, captured scFv-Fc, His-CD38 analyte.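 Also: SPR on a Carterra LSA, scFv-Fc captured by anti-human Fc on HC30M chip, His-tagged CD38 (human, mouse, cynomolgus) flowed as analyte in eight 1:2 steps from 400 nM.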
Assay [6] has as its target T3, His-tagged mouse CD38 (ACRO Biosystems …). Description: SPR, captured scFv-Fc, His-CD38 analyte.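 Also: SPR on a Carterra LSA, scFv-Fc captured by anti-human Fc on HC30M chip, His-tagged CD38 (human, mouse, cynomolgus) flowed as analyte in eight 1:2 steps from 400 nM.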 Background: Surface plasmon resonance follows binding to a sensor surface in real time, without labels.
The target in assay [7] is T4, human CD38 on transiently transfected Expi293 cells (Origene #SC321273) (human, UniProt P28907 1-300).
T4 construct: whole, on cells; also called Human (FACs)
Description: flow cytometry, transfected Expi293 cells.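 Also: antibody binding to Expi293 cells transiently expressing human or murine CD38, antibodies applied at 10 ug/ml for 60 min on ice, read by flow cytometry as percent gated cells.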 For orientation: A flow cytometer gives signals particle by particle.

The target in assay [8] is T5, murine CD38 on transiently transfected Expi293 cells (Origene MC208001) (murine, UniProt P56528 1-304).
T5 construct: whole, on cells; also called Murine (FACs)
T5 sequence (looked up): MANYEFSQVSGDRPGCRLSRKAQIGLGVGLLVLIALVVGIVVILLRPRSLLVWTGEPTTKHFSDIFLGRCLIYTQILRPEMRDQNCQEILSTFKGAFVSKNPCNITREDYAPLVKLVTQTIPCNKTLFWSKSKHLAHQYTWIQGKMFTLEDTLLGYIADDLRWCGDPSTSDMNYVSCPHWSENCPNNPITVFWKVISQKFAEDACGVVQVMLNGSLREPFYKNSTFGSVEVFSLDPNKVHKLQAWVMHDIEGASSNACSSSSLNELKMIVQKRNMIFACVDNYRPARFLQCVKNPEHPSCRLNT
As to the kind of experiment: flow cytometry, transfected Expi293 cells.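 Also: antibody binding to Expi293 cells transiently expressing human or murine CD38, antibodies applied at 10 ug/ml for 60 min on ice, read by flow cytometry as percent gated cells.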

B1: 40596p1.B1 (scFv, V domains shown)
VH: EVQLLESGGGLVEPGGSLRLSCAASGFDFSTYAMTWVRQAPGKGLEWVAGNGWSGSFIYYADSVKGRFTISRDNSKNTLYLQMNSLRAEDTAVYYCTRNPGFGEMDVWGQGTTVTVSS
VL: EIVLTQSPGTLRLSPGERATLSCKASQTVGTTLAWYQQKPGQAPRLLIYGASTRATGIPDRFSGSGSGTEFTLTISSLQSEDFADYYCQQYKSWPPLTFGGGTKVEIK
notes: tested as scFv-Fc supernatant
For B1, the “ELISA 1 ug/ml” value in assay [1] was 1.79; in assay [2], 1.99; in assay [3] it was 1.76. In addition, the Kd amounted to 46600 nM in assay [4], 110 nM in assay [5] and 9070 nM in assay [6]. The “FACs 10 ug/ml (percent gated)” value is 66.1% in assay [7] and 45.4% in assay [8].

B2: 40596p1.F6 (scFv, V domains shown)
VH: EVQLLESGGGLVQPGGSLRLSCAASGFDFSKNAMSWVRQAPGKGLEYVAGSGWSGSFIFYADSVKGRFTVSRDNSENTLYLQMSSLRAEDTAVYYCAKNPGFGEMDVWGQGTTVTVSS
VL: EIVLTQSPGSLFLSPGERATLTCRASQTIGSNLAWYQQKFGQAPRLLIYGASTRAADIPDRFSGSGSGTEFTLTISSLQSEDFAVYYCQQYNSWPPLTFGGGTKVEIK
notes: tested as scFv-Fc supernatant
Consider B2, for which the results for the “ELISA 1 ug/ml” value in assay [1], in assay [2] and in assay [3] were 1.91, 1.87 and 1.9, respectively. The Kd amounted to 84.7 nM in assay [4], 98.4 nM in assay [5] and 10.8 nM in assay [6]. Moreover, the “FACs 10 ug/ml (percent gated)” value in assay [7] turned out to be 72.8%; in assay [8], 68.6%.

B3: 40596p1.D2 (scFv, V domains shown)
VH: EVQLLESGGGLVQPGGSLRLSCAASGFDFSKNAMSWVRQAPGKGLEYVAGSGWSGSFIFYADSVKGRSTVSRDNSENTLYLQMSSLRAEDTAVYYCAKNPGFGEMDVWGQGTTVTVSS
VL: ELVLTQSPGSLFLSPGERATLTCRASQTIGSNLAWYQQKFGQAPRLLIYGASTRAADIPDRFSGSGSGTEFTLTISSLQSEDFAVYYCQQYNSWPPLTFGGGTKVEIK
notes: tested as scFv-Fc supernatant
For B3, the entries for the “ELISA 1 ug/ml” value in assay [1], in assay [2] and in assay [3] were 1.98, 1.85 and 1.77, respectively. Also, the Kd worked out at 63.7 nM in assay [4], 154 nM in assay [5] and 19 nM in assay [6]. The “FACs 10 ug/ml (percent gated)” value in assay [7] was 71.5%; in assay [8], 61%.

B4: 40596p1.G10 (scFv, V domains shown)
VH: EVQLLESGGGLVQPGGSLRLSCAAPGFDFSKNAMSWVRQAPGKGLEYVAGSGWSGSFIFYADSVKGRFTVSRDNSENTLYLQMSSLRAEDTAVYYCAKNPGFGEMDVWGQGTTVTVSS
VL: EIVLTQSPGSLFLSPGERATLTCRASQTIGSNLAWYQQKFGQAPRLLIYGASTRAADIPDRFSGSGSGTEFTLTISSLQSEDFAVYYCQQYNSWPPLTFGGGTKVEIK
notes: tested as scFv-Fc supernatant
With B4, the “ELISA 1 ug/ml” value in assay [1] turned out to be 1.84; in assay [2], 1.89; in assay [3] it was 1.74. Further, the Kd worked out at 67.8 nM in assay [4], 56.3 nM in assay [5] and 20.8 nM in assay [6]. The “FACs 10 ug/ml (percent gated)” value in assay [7] came out at 68%; in assay [8], 59%.

B5: 40596p1.A5 (scFv, V domains shown)
VH: EVQLLESGGGLVQPGGSLRLSCAASGFDFSNNAMSWVRQAPGKGLEYVAGSGWSGSFIFYADSVKGRFTVSRDNSENTLYLQMNSLRAEDTAVYYCAKNPGFGEMDVWGQGTTVTVSS
VL: EIVLTQSPGSLSLSPGERATLRCRASQSIGSNLAWYQQKPGQAPSLLIYGASTRAADIPDRFSGSGSGTEFTLTITSLQSEDFAVYYCQQYNSWPPLTFGGGTKVEIK
notes: tested as scFv-Fc supernatant
B5: the “ELISA 1 ug/ml” value in assay [1] is 1.88; in assay [2], 1.97; in assay [3], 1.81. The Kd stood at 75.8 nM in assay [4], 13.6 nM in assay [5] and 6.82 nM in assay [6]. The “FACs 10 ug/ml (percent gated)” value was found to be 72.8% in assay [7] and 68.7% in assay [8].

B6: 40566p1.F8 (scFv, V domains shown)
VH: DVQLVESGGGVVRPGESLRLSCAASGFTFDNYDMTWVRQAPGEGLEWVSFISSRGTFAYYTDSVKGRFTISRDNSKNTLYLQMNSLRAEDTAIYYCTKDSGEYYFFDYWGLGTLVTVSS
VL: EIVMTQSPATLSVSPGERATFSCRASQSVNSKLAWYQQKPGQAPRLLIYGASRRATGIPDRFSGSGSGTEFTLTISSLQSEDFAVYYCQQYYDWPPLTFGGGTKVEIK
notes: tested as scFv-Fc supernatant
Regarding B6, the figures for the “ELISA 1 ug/ml” value in assay [1], in assay [2] and in assay [3] were 1.75, 1.8 and 1.88, respectively. Besides, the Kd came to 10900 nM in assay [4], 4.82 nM in assay [5] and 7.59 nM in assay [6]. The figures for the “FACs 10 ug/ml (percent gated)” value in assay [7] and in assay [8] were 19.5% and 72.1%, respectively.

B7: 40617p1.2.A3 (scFv, V domains shown)
VH: EVQLLESGGGLVQPGGSLRLSCAASGFTFSNYWMTWVRQAPGKGLEWVSAISSYGGNYIYYADSVKGRFTISRDNSKDTLYLQMNSLRAEDTAVYYCAKDWDDGMDVWGQGTTVTVSS
VL: EIVMTQSPAVLSVSPGERATLSCRASQSVNSKLAWYQQKPGQAPRLLIYGASTRAAGIPDRFSGSGSGTDFTLTISSPQSEDFAVYYCQHYYDLPPYSFGGGTKVEIK
notes: tested as scFv-Fc supernatant
Take B7: the “ELISA 1 ug/ml” value in assay [1] amounted to 1.75; in assay [2] it was 1.7; in assay [3], 0.745. Further, the Kd in assay [4] was 28.1 nM; in assay [5], 92.8 nM; in assay [6], 75.5 nM. Moreover, the “FACs 10 ug/ml (percent gated)” value in assay [7] stood at 70.3%; in assay [8], 69.4%.

B8: 40617p1.2.A1 (scFv, V domains shown)
VH: EVQLLESGGGLVQPGGSLRLSCAASGFTFSSYWMTWVRQAPGKGLEWVSAISSYGGQYTYYADSVKGRFTISRDNSKDTLYLHMDSLRAEDTAVYYCAKDWDDGMDVWGQGTTVTVSS
VL: EIVMTQSPAVLSVSPGERATLSCRASQSVNIKLAWYQQKPGQAPRLLIYGASTRAAGIPDRFSGSGSGTDFTLTISSLQSDDFAVYYCQQYYDLPPYSFGGGTKVEIK
notes: tested as scFv-Fc supernatant
Take B8: the “ELISA 1 ug/ml” value in assay [1] came out at 1.57; in assay [2], 1.67; in assay [3], 1.13. Besides, the Kd stood at 82.9 nM in assay [4], 77.9 nM in assay [5] and 108 nM in assay [6]. Also, the “FACs 10 ug/ml (percent gated)” value stood at 78.8% in assay [7] and 67.9% in assay [8].

B9: 40617p1.2.H1 (scFv, V domains shown)
VH: EVQLLESGGGLVQPGGSLRLSCAASGFTFTNYWMTWVRQAPGKGLEWVSAISSYGGNYMYYADSVKGRFTISRDNSENTLYLQMNSLRAEDTAVYYCAKDWDDGMDVWGQGTTVTVSS
VL: EIVMTQSPAVLSVSPGERATLSCRASQTVGSKLAWYQQKPGQAPRLLIYGVSTRAAGIPDRFSGSGSGTDFTLTISSLQSEDFAVYYCQQYYDLPPYSFGGGTKVEIK
notes: tested as scFv-Fc supernatant
Regarding B9, the “ELISA 1 ug/ml” value in assay [1] stood at 1.81; in assay [2], 1.83; in assay [3], 1.05. Also, the Kd in assay [4] amounted to 12.5 nM; in assay [5], 30.6 nM; in assay [6], 39.4 nM. Besides, the “FACs 10 ug/ml (percent gated)” value in assay [7] came to 69.5%; in assay [8], 68.5%.

B10: 40617p1.2.H8 (scFv, V domains shown)
VH: EVQLLESGGGLVQPGGSLRLSCAASGFTFSSYWMTWVRQAPGKGLEWVSAISSYGGNYMYYADSVKGRFTISRDNSKDTLYLQMNSLRAEDTAVYYCAKDWDDGMDVWGQGTTVTVSS
VL: EIVMTQSPATLSVSPGDRATLSCRASQSVNSKLAWYQQKPGQAPRLLIYAASSRATGIPDRFSGSGSGTDFTLTISRLEPEDFAVYYCQQYYDLPPYSFGGGTKVEIK
notes: tested as scFv-Fc supernatant
For B10, the “ELISA 1 ug/ml” value in assay [1] was determined as 1.77; in assay [2], 2.17; in assay [3], 1.5. Further, the figures for the Kd in assay [4], in assay [5] and in assay [6] were 60.7 nM, 39.3 nM and 154 nM, respectively. Also, the “FACs 10 ug/ml (percent gated)” value in assay [7] is 67.8%; in assay [8], 68.4%.

As a reminder, the Kd is the free concentration of one partner at which half of the binding sites on the other are occupied at equilibrium, for simple one-to-one binding.
